B1: ADD1 (parent)
chain: LRHSFQKQQREKTRWLNSGRGDEA
B2: NET1 (parent)
chain: IKRTIRVLDVNNQSFREQEEPSNK

Variants of: B1
Assay: protein stability index of a GFP-peptide fusion (GPS, HEK-293T) (PSI 1-6); higher = more stable
Conditions: c terminus: a fixed tail appended
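Further: lentivirally expressed fusions sorted by FACS into six bins by GFP to DsRed ratio, PSI derived from sequencing read proportions per bin multiplied by bin number.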

Protein stability index of substitutions, site by site:
H3: T 3.94 | Y 3.48 | F 3.14 | W 2.28
N17: C 3.15 | V 4.03
Q8: P 4.13 | L 3.05
E23: R 3.49
Q9: D 4.06 | T 3.83 | R 3.75
L16: Q 4.01 | D 4.69
W15: H 5.01
F5: D 4.37 | C 2.21
T13: H 3.9
L1: S 4.35
R2: G 3.97
Q6: M 3.49
E11: S 3.13 | Y 2.36 | H 3.27
K12: N 3.73
K7: L 3.89
G19: K 3.69 | D 4.6

Variants of: B2
Assay: as above
Conditions: c terminus: a fixed tail appended

Protein stability index: each site, then its substitutions
E19: L 2.27 | N 2.89 | G 4.21 | F 2.15 | K 3.88 | A 2.57 | D 2.84 | T 3.34 | V 2.68 | S 2.44 | W 1.75 | C 2.74 | H 2.9 | R 2.6 | Y 2.43 | I 2.38 | M 3.15 | Q 2.76 | P 3.44
F15: S 4.3 | M 3.98 | P 4.67 | I 3.96 | D 4.86 | R 4.79 | A 4.27 | L 3.4 | C 4.18 | E 4.79 | H 4.44 | N 3.82 | T 4.09 | K 4.02 | Y 3.79 | Q 4.29 | V 3.79 | W 3.6
V10: E 4.79 | G 4.22 | N 4.46 | Y 4.06 | K 4.35 | A 3.38 | P 3.21 | T 4.23 | F 3.19 | C 3.82 | D 4.83 | L 3.85 | R 4.04 | S 3.85 | I 3.87 | M 4 | Q 4.03 | H 4.23
E20: I 3.37 | T 3.41 | G 3.19 | V 3.04 | S 3.57 | D 3.23 | L 3.16 | W 2.31 | Y 2.75 | C 3.27 | K 2.9 | N 3.52 | A 3.69 | M 3.16 | R 2.93 | H 3.05 | F 2.97 | P 3.33 | Q 2.8
S14: V 3.47 | E 3.79 | H 3.09 | L 2.62 | R 3.78 | W 3.01 | D 3.68 | M 3.21 | Y 2.6 | F 2.56 | K 3.24 | T 3.52 | A 3.02 | G 4.17 | I 3.64 | P 2.9 | C 3.27 | N 3.47 | Q 3.91
N11: Y 4.06 | M 2.83 | K 4.44 | P 4.16 | L 2.26 | F 2.61 | R 4.41 | I 1.85 | E 4.51 | H 3.62 | G 2.99 | Q 4.34 | C 3.09 | V 3.56 | S 4.22 | D 4.47 | W 2.65 | T 3.41 | A 4.48
P21: F 2.35 | E 3.36 | S 4.27 | C 3.54 | H 3.75 | T 3.57 | A 3.29 | D 3.97 | V 3.22 | R 3.68 | I 2.57 | N 3.92 | K 4.15 | Q 3.34 | W 3.12 | G 2.72 | Y 3.78 | M 3.11 | L 3.93
L8: P 4.93 | S 4.44 | R 4.68 | V 3.94 | Q 4.41 | Y 3.96 | T 4.72 | W 3.39
N12: Y 3.21 | V 2.97 | R 3.14 | I 3.51 | S 2.82 | K 2.72 | M 3.29 | A 3.38 | F 2.7 | W 2.63 | P 3.41 | C 3.16 | H 3.83 | G 4.14 | L 3.25 | E 3.98 | T 3.3 | Q 4.08 | D 4.21
E17: W 1.74 | F 2.8 | H 3.59 | D 3.25 | N 3.16 | K 3.11 | M 2.92 | P 2.92 | Y 2.44 | T 3.03 | G 3.29 | R 3.42 | S 3.16 | V 2.8 | I 3.22 | A 3.6 | Q 3.14 | L 3.15 | C 3.27
S22: W 1.92 | Q 2.8 | D 3.99 | A 3.04 | I 3.28 | Y 3.34 | K 3.87 | G 2.49 | T 3.14 | C 3.59 | N 3.97 | V 3.23 | L 2.64 | E 3.42 | M 4.02 | H 3.83 | R 3.85 | P 3.64 | F 2.55
R16: S 4.06 | G 3.94 | N 4.57 | V 3.96 | E 3.94 | C 3.3 | T 3.85 | D 4.47 | Y 3.4 | Q 3.43 | P 3.42 | M 3.41 | A 4 | W 2.07 | F 3.47 | K 4.21 | I 3.83 | L 3.35 | H 3.69
Q18: M 3.07 | G 3.59 | E 3.76 | D 4.15 | L 3.06 | V 3.43 | S 2.79 | H 3.7 | T 3.37 | I 3.1 | K 2.91 | C 3.09 | F 2.52 | P 3.49 | N 3.52 | A 2.27 | R 3.1 | Y 2.66
D9: Q 3.26 | G 3.7 | C 2.94 | W 2.89 | Y 2.41 | N 4.11 | S 3.5 | T 2.9 | M 1.91 | K 4.44 | A 3.31 | F 2.24 | E 3.91 | R 3.54 | I 1.58 | P 4.36 | H 4.23 | L 1.77
N23: D 4.51 | Y 2.07 | H 2.28 | C 3.8 | F 2.96 | S 3.97 | K 3.56 | Q 3.65 | V 4.04 | I 3.94 | T 3.73 | G 3.56 | P 2.87 | M 3.41 | L 3.16 | E 3.96 | A 2.99
K24: T 4 | I 3.29 | L 4.23 | M 3.82 | Q 4.2 | P 3.55 | W 2.61 | R 3.52 | A 3.46 | F 2.98 | D 3.79 | S 4.07 | V 3.73 | N 3.99 | E 4.37 | H 4.11 | Y 3.61 | C 3.4 | G 3.83
Q13: D 3.56 | N 3.69 | A 4.18 | G 3.8 | C 3.01 | V 3.67 | P 3.35 | L 2.33 | M 3.8 | W 2.51 | I 2.99 | E 4.26 | F 2.72 | R 3.27 | Y 2.04 | T 3.37 | K 3.7 | H 3.28 | S 4.19
